Results on one molecule are retold here after patent US20250339532A1 (FATE THERAPEUTICS, published 2025).

The target of the assay is CD38 (UniProt P28907 1-300, limits assumed). Description: cell-based or functional assay.

B1: daratumumab (antibody, V domains shown)
VH: EVQLLESGGGLVQPGGSLRLSCAVSGFTFNSFAMSWVRQAPGKGLEWVSAISGSGGGTYYADSVKGRFTISRDNSKNTLYLQMNSLRAEDTAVYFCAKDKILWFGEPVFDYWGQGTLVTVSS
VL: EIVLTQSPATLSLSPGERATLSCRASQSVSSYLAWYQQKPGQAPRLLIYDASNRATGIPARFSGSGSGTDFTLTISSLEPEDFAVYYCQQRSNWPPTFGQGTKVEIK
Turning to B1, the “fold reduction of CD38+ T cell counts in co-cultures with daratumumab against the control condition” value was about 15 fold and the “fold reduction of CD38+ pbNK cell counts in co-cultures with daratumumab against the control condition” value is about 21 fold.
